Assay results as given in paper PMC5087089, “Reconstituted B cell receptor signaling reveals carbohydrate-dependent mode of activation” (Scientific Reports, 2016).

Target: T1, wildtype (WT) HA trimer from A/New Caledonia/20/1999 (H1 1999 NC), soluble trimeric format (influenza A virus A/New …, UniProt Q6WG00)
T1 construct: also called wildtype HA
Assay: ELISA
Details: both partners purified

B1: CH65, HA receptor binding site specific monoclonal antibody (antibody, V domains shown)
VH: EVQLVQSGAEVKKPGASVKVSCKASGYTFTDYHINWVRQAPGQGLEWMGWIHPNSGDTNYAQKFQGWVTMTRDTAISTAYMEVNGLKSDDTAVYYCARGGLEPRSVDYYYYGMDVWGQGTTVTVSS
VL: SVLTQPPSVSVAPGQTARITCGGNDIGRKSVHWNQQKPGQAPVLVVCYDSDRPSGIPERFSGSNSGNTATLTISRVEAGDEADYYCQVWDSSSDHVIFGGGTKLTVL
B1: binds.
